US10513702B2, “Synthetic hammerhead ribozymes with ligand-responsive tertiary interactions” (The Board of Trustees of the Leland Stanford Junior …, priority 2015, dated 2019)

Columns and labels:
[1] = test system: GFP reporter transcript (device in 3′ UTR; GFP/mCherry two-color reporter construct); assay: Flow cytometry validation of reconstructed switch/ribozyme sequences in two-color reporter plasmid; assay type: cell-based, budding yeast strain W303a; settings: for μ (-tgt), median GFP/mCherry ratio (basal level): absence of target ligand, at least 3 independent transformants, ± standard error of the mean
Source text: The RNA devices were individually synthesized, integrated into the two-color characterization plasmid, and assayed in yeast via flow cytometry. The μ values obtained from flow cytometry analysis of the reconstructed sequences are tightly correlated with those obtained through the FACS-Seq analysis (FIG. 3a; R^2=0.98). We compared the validated activation ratios (μ−target/μ+target) for several of the best performing switches from the tertiary interaction switch libraries with those from previously optimized RNA devices that function through secondary structure rearrangements (FIG. 3b, Table 1).
Specific switch sequences were synthesized from overlapping oligonucleotides using overlap-extension PCR as described for the device library constructions. These were gap-repair transformed into the yeast two-color screening plasmid along with control plasmids by the lithium acetate/single-stranded carrier DNA/polyethylene glycol method, with each switch sequence verified using Sanger sequencing. At least three individual colonies were picked and inoculated in SC-URA media. Cultures were grown overnight, back-diluted 20:1 to an OD600˜0.07 and then grown 6 hrs in the absence and presence of a ligand target, at the same ligand concentrations as used for the FACS-Seq assays. The cells were then spun down and resuspended in an equal volume of 1×PBS buffer (Life Technologies) with 1% BSA (Fraction V, EMD Millipore) and a DAPI viability dye (Life Technologies). GFP was excited at 488 nm and measured with a bandpass filter of 525/50 nm. mCherry was excited at 561 nm and measured with a bandpass filter of 615/20 nm. DAPI was excited at 405 nm and measured with a bandpass filter of 450/50 nm. Prior to each use, voltages of fluorescence PMT detectors were calibrated with MACSQuant calibration beads to fix GFP and mCherry levels. For each culture, 10 μl of sample was analyzed, which captured 50,000-150,000 events while also providing cell density measurements. The data was analyzed using a custom MATLAB program to gate for mCherry expression above the no-color controls and non-saturating values for GFP and mCherry, and then extract μ, the median GFP/mCherry ratio. Since cultures that contain tetracycline produce non-specific fluorescence in the GFP emission region, the μ values for this condition were corrected by subtracting a fixed offset.
Note that the NGS data is based on cells sorted through a FACSAria II Cell Sorter. An in-house flow cytometer (Miltenyi Biotec MACSQuant VYB) was used for validation measurements. The GFP and mCherry levels are given in arbitrary fluorescence units that differ between the two instruments, but in all cases are treated as a linear function of the actual protein levels in order to compute μ. […]

[2] = test system: GFP reporter transcript (device in 3′ UTR; GFP/mCherry two-color reporter construct); assay: Flow cytometry dose-response assays on reconstructed theophylline-responsive RNA devices; assay type: cell-based, budding yeast strain W303a; settings: theophylline 0-20 mM; 4-parameter logistic fit, Hill slope 1.0; [80% confidence interval]
Procedure: Median GFP/mCherry ratios were computed for at least triplicate independent cultures assayed at theophylline concentrations of 0, 0.16, 0.31, 0.62, 1.25, 2.5, 5, 10, and 20 mM. The data were fit to a 4-parameter logistic model with the Hill slope fixed at 1.0; the 80% confidence interval for the EC50 fit is shown. A range of one standard deviation over the replicates is shown for the mean activity levels and activity ratio.

[3] = test system: RNA device self-cleavage (ribozyme); assay: In vitro SPR-based ribozyme cleavage assay; assay type: biochemical; settings: 500 μM MgCl2, 25° C.
Procedure: Representative FACS-Seq sort identified theophylline-responsive RNA device cleavage kinetics and ligand sensitivity were determined by surface plasmon resonance (SPR), using previously described protocols. Briefly, the RNA device DNA templates were amplified by PCR (PFU Ultrall HS; Agilent) with primers containing overhangs corresponding to the T7 RNAP promoter and cis-blocking sequences that prevent device cleavage during in vitro T7 transcription (Table 2; SPR templates). A second PCR (KAPA HiFi PCR Kit; Kapa Biosystems) with short primers was performed to enrich the product for full-length sequences (Table 2; SPR_fwd_primer, SPR_rev_primer). […]
SPR-based cleavage assays were performed at various theophylline concentrations to generate dose-response curves. The RNA dissociation rate constant (kd) at each theophylline concentration ([theo]) was fit to the sigmoidal equation kd=kd,min+(kd,max)/(1+[theo]/IC50) using MATLAB, where kd,max and kd,min are the maximum and minimum RNA dissociation rate constants, evaluated in absence of and with the highest theophylline concentration assayed, respectively. […]

| Molecule | μ (-tgt), median GFP/mCherry ratio (basal level) [1] | EC50 [2] [mM] | kd, ribozyme cleavage (dissociation) rate constant ([3]; 1 mM theophylline) [s⁻¹] | kd, ribozyme cleavage (dissociation) rate constant ([3]; absence of ligand (0 mM theophylline)) [s⁻¹] | Activation Ratio ([1]; 5 mM vs 0 mM theophylline, ± SEM) |
| --- | --- | --- | --- | --- | --- |
| sTRSV: wild-type tobacco ringspot virus hammerhead ribozyme, SEQ ID NO: 7; loop I TGTGCTT, loop II GTGA (DNA GCUGUCACCGGAUGUGCUUUCCGGUCUGAUGAGUCCGUGAGGACGAAACAGC; listed as RNA, chemistry not fully specified) [reference compound] | 0.051±0.003 | – | – | – | – |
| sTRSVctl: inactive control ribozyme with scrambled catalytic core, SEQ ID NO: 8 (DNA GCUGUCACCGGAUGUGCUUUCCGGUACGUGAGGUCCGUGAGGACAGAACAGC; listed as RNA, chemistry not fully specified) [reference compound] | 5.8±0.3 | – | – | – | – |
| L2b8-a1: previously optimized secondary-structure switching theophylline-responsive RNA device, SEQ ID NO: 2 (nucleic acid, listed as RNA, chemistry not fully specified) AAACAAACAAAGCUGUCACCGGAAUCAAGGUCCGGUCUGAUGAGUCCGUUGUCCAUACCAGCAUCGUCUUGAUGCCCUUGGCAGGGACGGGACGGAGGACGAAACAGCAAAAAGAAAAAUAAAAA | 0.109±0.004 | 10.4 | 0.00283 | 0.01 | – |
| L2b8-t47: previously optimized secondary-structure switching theophylline-responsive RNA device, SEQ ID NO: 3 (nucleic acid, listed as RNA, chemistry not fully specified) DNA: AAACAAACAAAGCUGUCACCGGAUGUGCUUUCCGGUCUGAUGAGUCCGUUGAGUAUACCAGCAUCGUCUUGAUGCCCUUGGCAGACUGUAUACGGAGGACGAAACAGCAAAAAGAAAAAUAAAAA | – | 5.7 | – | – | 2.8±0.3 |
| L2b8: previously optimized secondary-structure switching theophylline-responsive RNA device, SEQ ID NO: 1 (nucleic acid, listed as RNA, chemistry not fully specified) DNA: AAACAAACAAAGCUGUCACCGGAUGUGCUUUCCGGUCUGAUGAGUCCGUUGUCCAUACCAGCAUCGUCUUGAUGCCCUUGGCAGGGACGGGACGGAGGACGAAACAGCAAAAAGAAAAAUAAAAA | – | 4.9 | – | – | – |
